According to article PMC5716075, “Conserved asymmetry underpins homodimerization of Dicer-associated double-stranded RNA-binding proteins” (Nucleic Acids Research, 2017):

B1: Loqs-D3 (Loquacious residues 392-463, dsRBD 3), wild type [Drosophila] / itself (parent)
chain: IDYIKLLGEIATENQFEVTYVDIEEKTFSGQFQCLVQLSTLPVGVCHGSGPTAADAQRHAAQNALEYLKIMT
B2: PACT-Ext-D3 (PACT residues 208-313, dsRBD 3 with the conserved N-terminal extension), wild type [human] / itself (parent)
chain: GHSLGCTWHSLRNSPGEKINLLKRSLLSIPNTDYIQLLSEIAKEQGFNITYLDIDELSANGQYQCLAELSTSPITVCHGSGISCGNAQSDAAHNALQYLKIIAERK
B3: PACT-D3 (PACT residues 239-313, core dsRBD 3), wild type [human] / itself (parent)
chain: TDYIQLLSEIAKEQGFNITYLDIDELSANGQYQCLAELSTSPITVCHGSGISCGNAQSDAAHNALQYLKIIAERK

Variants of: B1
Assay: SEC-MALLS
Settings: with itself

Variant	screen value
chain 1 L35R	8 kDa

Variants of: B2
Assay: SEC-MALLS
Settings: with itself

Variant	screen value
chain 1 L66R	12.3 kDa

Variants of: B3
Assay: SEC-MALLS
Settings: with itself

Variant	screen value
chain 1 L35R	8.8 kDa
